Assay: soluble on expression in E. coli; label from the status in PepcDB or PDB records

| Sequence | soluble on expression in E. coli |
| --- | --- |
| PDLAQKAANLTQEELAGLLYDSLYTKILPLSDDIIVYPAHGAGSACGKNMMQETVDSLGNQKRVNYALNQPGKEAFIASVIEGLLPPPAYFGGNVAMNKMGYDSIDNVMERGLSALSATDFEAIAKTSDALVLDTRAPGVFAQGFIPRSINIGLDGDFAPWVGTMIVDVKQPLLLVADPGREQEVITRLSRVGFDQVLGYLDGGFDTWNASGKEIDHVECITANEFAERFCPEESLVFDVRKESEYAAEHVEGAYSRPLAYINDWIQDIPRDRHFYLHCIGGYRSMIASSILLSRGYRNFTDIEGGFASIAQTGVPKTDYVCQSKVSKK | not soluble |
| MDVMALKREVIEYSRSIGIDKIGFASADPFVELKERLRRQQELGYQSGFEEPDIEKRTNPSLLLPEAKSIIAIALAYPSKMKNAPRGTKTERRGVFCRASWGKDYHDVLRERLQQLEEFLLAKVPHARVRSMVDTGELADRAVAERAGIGWSGKNCSIITPEFGSYVYLGEMITNIPFPPDEPVENRCGTCTKCIDACPTGALVQGGQLNAQRCLSFLTQTKGFLADEFREKIGNRLYGCDTCQQVCPENKGKDFHLHPEFEPDPEAVKPKLIPLLQMSNREFKETFGAMAGSWRGKKPIQRNAILALAHYKDQTAVPHLLRLLKEDSRPVIRGTAAWALGKIGDPSAKSYLEAARPTEADADVIAEIEKGLKLLAEAKE | not soluble |
| PGPPQGPPQPVQQSKRLQQTQAQVEEVVDIMRVNVDKVLERDSKISELDDRADALQAGASQFEASAGKLKRKFWWKNCKM | soluble |
| MQMLRNVHPVTEIQVSANMAEVRARVDFKVGAKSNIDAEILSFHGLQSDKEHVAVIFKSADTTQEAPLVRMHSECLTGDVFHSSRCDCGEQLEETITRMGQSGGIILYLRQEGRGIGLYNKIDAYRLQSQGMNTYEANNHLGFGDDLRDFTEAAQMLQALGVKKIRLVTNNPKKIRELQEHGIEIVEVVHTSAHIKDGNENYLKAKVSHGKHQLKL | not soluble |
| MGSDKIHHHHHHMSIKTFELISTTENGIQLISYVALPEAASDDNPVAGILVAPEWWGVVEHPKNVTERLAKAGYAAVAMDVYGEGKLTSDAAQANMWMEQVLADQDMLMARCRLILNDFSDQLAVDSDNLGAIGYCFGGKIVLDMAREGMPLKAVATFHGNPSPKQPADKQFSAKVLVAHGRDDSMVSMDAIEGLKAELDGADIDYTIDVYDGAKHGFTNPNADERAAKNGVDLGYNETAAKQSWDNMLEFMKDNLA | not soluble |
| MTHPVAVKACLFDMDGLLINTEDIYTETLNETLAEFGKGPLTWDVKIKLQGLPGPKQEKG | soluble |
| MAHHHHHHMSSTEEYYKLMEVILHILKKHKRHVECLKILLKLNRRDKIKDLLFECGDMITCKQMALICSRHSIHLEFTQEEVIRYPHMNLNQLASLSSGEHLSSIFLKLAKDLDVEEPKLPEDIYKTHLEEKRNTNVWDSAKQNLSASFVNAFVNAAFCKDKLMTVNSSL | not soluble |
| MSLVSVIILASGNSQRMGQNKLFLKYQGKTFLEHTLTLVNQLDVLERILVVSPENQPAFPLPKNIQLILNHQWQEGQSSSIRLGTEQARGAGYLYLPSDQPLLTPKMLQLVLDKCQRNKIVVPLQKDGCPSSPVLFGNQFRQELLTLTGEKGGRMIYERFPEAVQMLRIATPGRLKDIDTPEEYQKLIQETNSLEHHHHHH | not soluble |
| MARGIWGVDSAQVVTDQLFQCVRTELGYPKFWGRYLSEVPNVSEGLTRDEIVRIRNYGVKVLPIYNAFREAVGYANGQVAARNAVFHARRLGIPKNKLLFANIEDFFAVDAAWIAAWVETLYPTGYRPGLYADPTKGDFAAAYCEAVSRNNQVAVQAVIWSAAPRPGTTKEQKAPRYQPAAPPCSANVWVWQYGRDAEVCPVDTNLADRRLLDFLY | soluble |
| MINRVPTNIITGFLGVGKTTAILHLLATKPAHEKWAVLVNEFGEIGIDGAIMSEQGAMIKEVPGGCLCCTAGVPMSVGINALLRQKPDRLIIEPTGLGHPKQVVATLISEQYQPYVDLKATIALMDPRHLSMDKYRSNQNFNDQLASADIVLGNKVDQCSSSDIDAFNDWVTDQTPAKTFSQLIKQGQFPIELLDMPRLVGHASTHIDSHHHHHAADEPQFQLAPQQPFLRKENRGQGYFSCGWLFGAEYQFNFDLLFQLLNDLTAERVKGVLNTDRGCYAFNVANGVVSVTEMSLDGFESRLEVIDSQLMPWSELESILLKIAGIPQALEHHHHHH | not soluble |
| MTQEIDIGKYHQLALQKQKEHRKFLATLKKKAPKNLDKIVQEVHTEVFREIDCTKCANCCKILGPLFTESDISRIAKHFRMRLPVFEDMYLRVDEDNDKVFKSMPCPFLGEDNLCFIYDVRPKACREFPHTDRKKIYQINHLTIQNTLICPAVYLFVEKLQERLALEHHHHHH | soluble |

From the DeepSol protein solubility set
